Laboratory results as given in patent publication US20190330334A1 (KAO, published 2019).
Ends that are not written are not given here.

Tests used:
inactive GIP, GIP(3-42) = biological target: T1, inactive GIP, GIP(3-42); assay: sandwich ELISA, anti-total GIP capture antibody, biotinylated m1 as detection antibody at 1 ug/mL
T1 peptide: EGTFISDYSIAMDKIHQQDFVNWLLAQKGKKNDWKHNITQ
Protocol: The reactivity between the monoclonal antibody prepared in Production Example 1 and active GIP was confirmed by ELISA. The amino group of the anti-active GIP monoclonal antibody was biotinylated with NH2 group biotinylation kit (manufactured by Dojindo Laboratories). ELISA was performed using the produced biotinylated anti-active GIP monoclonal antibody at 1 μg/mL instead of a detection antibody, GIP detection antibody (biotinylated anti-total GIP monoclonal antibody), included in Human (total) GIP ELISA kit (manufactured by EMD Millipore Corporation). A […] dilution series of GIP(1-42) or GIP(3-42) was prepared in 6 steps (8.2 to 2000 pg/mL) with a 2000 pg/mL solution as the highest concentration. By using an anti-total GIP monoclonal antibody (included in Human GIP (total) ELISA kit manufactured by EMD Millipore Corporation) as a capture antibody, the biotinylated anti-active GIP monoclonal antibody as a detection antibody, and a peroxidase-streptavidin conjugate for detection, sandwich ELISA was conducted to prepare a calibration curve with GIP concentration on the X-axis and 450 nm-590 nm absorbance on the Y-axis (FIG. 1).

[1] = biological target: T2, PEGylated N-terminus 15 amino acids of active GIP (GIP(1-15)), antigen (1) for measurement (also: PEGylated, site not given here); assay: ELISA, immobilized antigen, hybridoma culture supernatant
T2 construct: also called PEGylated GIP(1-15)
T2 peptide: YAEGTFISDYSIAMD
Protocol: (§1) The reaction between the hybridoma culture supernatant and the antigen (1) and (2) for measurement was evaluated by ELISA using immobilized antigen (1) and (2), and hybridomas that are positive for the antigen (1) and negative for the antigen (2) were selected as anti-active GIP monoclonal antibody-producing hybridomas.

[2] = biological target: T3, PEGylated N-terminus 13 amino acids of inactive GIP (GIP(3-15)), antigen (2) for measurement (also: PEGylated, site not given here); assay: as above
T3 construct: Immobilized on the ELISA plate; also called PEGylated GIP(3-15)
T3 peptide: EGTFISDYSIAMD
Protocol: as §1

B1: anti-active GIP monoclonal antibody produced by hybridoma 9B9H5-B9 line (Production Example 1) (antibody, V domains shown)
VH: QVQLQQPGAELVKPGASVKLSCKASGYTFTSFWMHWVIQRPGQGLEWIGEMNPSDGRTHFNEKFKTKATLTIDTSSNTAYMELNSLTSEDSAVYYCARRMEDWGQGTLVTVSA
VL: DIKMTQSPSSMYASLGERVTITCKASQDINSYLGWFQQKPGKSPKTLIYGANRLVDGVPSRFSGSGSGQDYSLTISSLEYDDMGIYYCLQYDEFPLTFGAGTKLELKR
notes: also called anti-active GIP antibody; anti-GIP antibody
binding result (inactive GIP, GIP(3-42)): no binding (tested: 2000 pg/mL)
binding result [1]: binds
binding result [2]: no binding
